Measured values as given in PMC10513324.

Experiments:
[1] = molecular target: GST-Bicc1 (full-length, WT) (UniProt Q99MQ1); assay: pull-down; full-length GST-Bicc1 (WT or mutD) on glutathione-Sepharose 4B beads, no RNA; HEK293T cell extracts with full-length or truncated ANKS3-Flag; 2 h at 4°C; western blot
GST-Bicc1 mutD = assay: GST pull-down, fluorescent RNA; conditions: after incubation with ANKS3-Flag HEK293T extract; 100 pmol labeled RNA with 5-10 pmol GST-Bicc1 on glutathione beads, 1 h at 4 C; then HEK293T extract (20 mM Tris-HCl pH 7.4, 2.5 mM MgCl2, 100 mM NaCl, 5% …)
GST-Bicc1 WT = assay: GST pull-down, fluorescent RNA; conditions: 100 pmol labeled RNA with 5-10 pmol GST-Bicc1 on glutathione beads, 1 h at 4 C, then HEK293T extract (20 mM Tris-HCl pH 7.4, 2.5 mM MgCl2, 100 mM NaCl, 5% …)
[2] = molecular target: GST-Bicc1-KH (complete KH tandem repeat of Bicc1 fused to GST); assay: pull-down; GST fusions of Bicc1 fragments (KH tandem repeat, KH1, KH2, IVS) on glutathione-Sepharose 4B beads; HEK293T cell extracts with ANKS3-Flag (full-length or ΔNter), without v5-ANKS6; 2 h at 4°C; western blot

Sequence of UniProt Q99MQ1 (Q99MQ1 whole entry, the tested form may be a part): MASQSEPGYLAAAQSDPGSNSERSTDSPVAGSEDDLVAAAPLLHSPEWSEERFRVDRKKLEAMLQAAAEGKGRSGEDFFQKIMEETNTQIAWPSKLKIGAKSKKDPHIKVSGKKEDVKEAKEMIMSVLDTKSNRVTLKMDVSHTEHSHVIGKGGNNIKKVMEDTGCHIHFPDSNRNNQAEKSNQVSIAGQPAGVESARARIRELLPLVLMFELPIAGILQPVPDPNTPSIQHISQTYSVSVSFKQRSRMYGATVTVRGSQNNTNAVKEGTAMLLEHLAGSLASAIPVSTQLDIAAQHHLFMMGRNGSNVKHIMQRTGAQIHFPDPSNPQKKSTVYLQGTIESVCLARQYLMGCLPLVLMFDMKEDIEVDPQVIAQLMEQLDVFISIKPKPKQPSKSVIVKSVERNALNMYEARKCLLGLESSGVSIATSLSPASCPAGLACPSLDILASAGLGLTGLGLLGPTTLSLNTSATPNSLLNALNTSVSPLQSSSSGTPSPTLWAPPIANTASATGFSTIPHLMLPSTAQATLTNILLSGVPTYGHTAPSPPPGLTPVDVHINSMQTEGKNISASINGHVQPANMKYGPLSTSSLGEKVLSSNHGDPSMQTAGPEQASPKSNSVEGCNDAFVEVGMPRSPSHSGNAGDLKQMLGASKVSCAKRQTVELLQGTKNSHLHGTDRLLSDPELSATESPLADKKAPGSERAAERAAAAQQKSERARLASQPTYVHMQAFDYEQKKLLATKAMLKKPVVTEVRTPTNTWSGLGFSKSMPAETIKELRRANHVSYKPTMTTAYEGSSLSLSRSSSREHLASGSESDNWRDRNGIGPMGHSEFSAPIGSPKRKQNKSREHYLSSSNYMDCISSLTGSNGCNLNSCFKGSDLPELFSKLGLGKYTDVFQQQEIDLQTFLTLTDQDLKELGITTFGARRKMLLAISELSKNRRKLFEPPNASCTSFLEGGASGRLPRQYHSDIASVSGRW

ANKS3 ΔSAM-Flag (from UniProt Q6ZW76 1-656) (domain or fragment)
percent decrease of binding against full-length ANKS3-Flag [1]: 60%

Dand5-3'UTR 66-110 RNA
binding signal (% of RNA bound by WT GST-Bicc1) (GST-Bicc1 mutD): 231 | binding signal (% (reference)) (GST-Bicc1 WT): 100

Dand5-3'UTR 226-270 RNA
binding signal (% (relative to 66-110 RNA, inferred)) (GST-Bicc1 WT; with ANKS3-Flag HEK293T extract): 17.2

B1: ANKS3 ΔNter-Flag (domain or fragment)
chain: MMDTYSPSLPKSLYRSPEKYEDLSSSDESCPAPQRQRPCRKKGVSIHEGPRALARITGIGLGGRAPRPRYEQAPPRGYVTFNSSGENPLEEEGLCCRDVTSPINERDVESSSSSSSREEHAFCANLGPVQSSSSSEGLARAQGLSSEASVESNEDSDHACKSSARKQAKSYMKTKNPDSQWPPRAATDREGFLAESSPQTQRAPYSGPQDLAALLEQIGCLKYLQVFEEQDVDLRIFLTLTESDLKEIGITLFGPKRKMTSAIARWHSSARPPGDALELAYADRLEAEMQELAIQLHKRCEEVEATRGQVCQEQELRAVVESCLLEQDRAREDLQARLRETWALARDAALVLDQLRACQAELSSRVRQDQPPGAATLGLAVPPADSKGWQASLQAMSLPELSGALEDRVREMGQALCLVTQSLEKLQVLNGKKWRET
fold change of binding against full-length ANKS3 [2]: 8 fold
